Reference: patent publication US7038112B2, “Fatty acid elongases” (Miami University, priority 1997, dated 2006)
Read-outs that look alike come from different tables or passages of the source.

Tests used:
[1] = In vitro fatty acid elongation assay with yeast microsomes, 18:0 acyl-CoA substrate; format: biochemical, Saccharomyces cerevisiae; details: for (%) 20:0 acyl CoA / (%) 22:0 acyl CoA / (%) 24:0 acyl CoA / (%) 26:0 acyl CoA / (%) Total / Rate, 20:0 acyl CoA / Rate, 22:0 acyl CoA / Rate, 24:0 acyl CoA / Rate, 26:0 acyl CoA / Rate, Total: second experiment
Procedure: (§1) Transformed yeast cells were grown in the presence of either glucose or galactose (2% w/v) as described in Example 1. Cells were harvested by centrifugation at 5000×g for 10 min and washed with 10 ml ice cold isolation buffer (IB), which contains 80 mM Hepes-KOH, pH 7.2, 5 mM EGTA, 5 mM EDTA, 10 mM KC1, 320 mM sucrose and 2 mM DTT). Cells were then resuspended in enough IB to fill a 1.7 ml tube containing 700 μl of 0.5 μm glass beads and yeast microsomes were isolated from the cells essentially as described in Tillman, T. and Bell, R., J. Biol. Chem. 261:9144–9149 (1986). The microsomal membrane pellet was recovered by centrifugation at 252,000×g for 60 min. The pellet was rinsed by resuspending in 40 ml fresh IB and again recovered by centrifugation at 252000×g for 60 min. Microsomal pellets were resuspended in a minimal volume of IB, and the protein concentration adjusted to 2.5 μg μl^−1 by addition of IB containing 15% glycerol. Microsomes were frozen on dry ice and stored at −80° C. The protein concentration in microsomes was determined by the Bradford method (Bradford, 1976).
(§2) Fatty acid elongase activity was measured essentially as described in Hlousek-Radojcic, A. et al., Plant J. 8:803–809 (1995). Briefly, the standard elongation reaction mix contained 80 mM Hepes-KOH, pH 7.2, 20 mM MgCl2, 500 μM NADPH, 1 mM ATP, 100 μM malonyl-CoA, 10 μM CoA-SH and 15 μM radioactive acyl-CoA substrate. The radiolabeled substrate was either [1^−14C]18:1-CoA (50 uCi μmol^−1), [1^−14C]18:0-CoA (55 uCi μmol^−1), or [1^−14C]16:0-CoA (54 uCi μmol^−1). The reaction was initiated by the addition of yeast microsomes (5 μg protein) and the mixture incubated at 30° C. for the indicated period of time. The final reaction volume was 25 μl.
(§3) Methyl esters of the acyl-CoA elongation products were prepared as described in Example 1. Methyl esters were separated on reversed phase silica gel KC18 TLC plates (Whatman, […] thick), quantified by phosphorimaging, and analyzed on by ImageQuant software (Molecular Dynamics, Inc., Sunnyvale, Calif.). The detection limit for each product is about 0.001 nanomoles per min. per mg microsomal protein, depending on the phosphorimage exposure time.
(§4) Yeast cultures containing full-length EL1 in λYES and full-length EL2 in pYEUra3 were grown in the presence of galactose or glucose as described in Example 2. Microsomes were then prepared from each of the cultures and fatty acid elongation assays were carried out as described in Example 2.
(§5) In the first experiment, microsomes were prepared from galactose-induced cultures of EL1, EL2 and FAE1, and incubated with either [1-^14C] 18:0 acyl-CoA or [1-^14C] 18:1 acyl-CoA as substrate. The amounts of various reaction products synthesized after 30 minutes (min) were determined as described in Example 2.
In a second experiment, microsomes were prepared from galactose-induced and from glucose-repressed yeast cultures containing EL1 or EL2 coding sequences. The microsomal preparations were incubated with either 18:0 acyl-CoA or 18:1 acyl-CoA as substrate and the fatty acid reaction products determined as described above. […]

[2] = format: biochemical, Saccharomyces cerevisiae; details: for (%) 20:1 acyl CoA / (%) 22:1 acyl CoA / (%) 24:1 acyl CoA / (%) 26:1 acyl CoA / (%) Total / Rate, 20:1 acyl CoA / Rate, 22:1 acyl CoA / Rate, 24:1 acyl CoA / Rate, 26:1 acyl CoA / Rate, Total: second experiment
Procedure: as §1, §2, §3, §4, §5
In a second experiment, microsomes were prepared from galactose-induced and from glucose-repressed yeast cultures containing EL1 or EL2 coding sequences. The microsomal preparations were incubated with either 18:0 acyl-CoA or 18:1 acyl-CoA as substrate and the fatty acid reaction products determined as described above.

[3] = 18:0-CoA substrate, +Galactose (induced)
[4] = 18:0-CoA substrate, +Glucose (uninduced)
[5] = 18:0-CoA substrate, galactose-induced, 30 min, first experiment
[6] = +Gal, standard reaction mix, average of two experiments
[7] = +Glu, standard reaction mix, one experiment
[8] = galactose-induced, −A&C (ATP and Coenzyme A omitted), average of two experiments
[9] = galactose-induced, −ATP, average of two experiments
[10] = galactose-induced, −CoA, average of two experiments
[11] = 18:1-CoA substrate, +Galactose (induced)
[12] = 18:1-CoA substrate, +Glucose (uninduced)
[13] = 18:1-CoA substrate, galactose-induced, 30 min, first experiment

B1: EL2: Arabidopsis β-keto acyl synthase gene product (SEQ ID NO:4) expressed in yeast microsomes (protein, listed as Arabidopsis thaliana)
chain: MDYPMKKVKIFFNYLMAHRFKLCFLPLMVAIAVEASRLSTQDLQNFYLYLQNNHTSLTMFFLYLALGSTLYLMTRPKPVYLVDFSCYLPPSHLKASTQRIMQHVRLVREAGAWKQESDYLMDFCEKILERSGLGQETYVPEGLQTLPLQQNLAVSRIETEEVIIGAVDNLFRNTGISPSDIGILVVNSSTFNPTPSLSSILVNKFKLRDNIKSLNLGGMGCSAGVIAIDAAKSLLQVHRNTYALVVSTENITQNLYMGNNKSMLVTNCLFRIGGAAILLSNRSIDRKRAKYELVHTVRVHTGADDRSYECATQEEDEDGIVGVSLSKNLPMVAARTLKINIATLGPLVLPISEKFHFFVRFVKKKFLNPKLKHYIPDFKLAFEHFCIHAGGRALIDEMEKNLHLTPLDVEASRMTLHRFGNTSSSSIWYELAYTEAKGRMTKGDRIWQIALGSGFKCNSSVWVALRNVKPSTNNPWEQCLHKYPVEIDIDLKE
(%) 20:0 acyl CoA [1, 3]: 43.1% | (%) 22:0 acyl CoA [1, 3]: 17.8% | (%) 24:0 acyl CoA [1, 3]: 19.1% | (%) 26:0 acyl CoA [1, 3]: 20.0% | (%) Total [1, 3]: 100.0% | Rate, 20:0 acyl CoA [1, 3]: 0.107 Nanomoles/minute/mg of microsomal protein | Rate, 22:0 acyl CoA [1, 3]: 0.044 Nanomoles/minute/mg of microsomal protein | Rate, 24:0 acyl CoA [1, 3]: 0.048 Nanomoles/minute/mg of microsomal protein | Rate, 26:0 acyl CoA [1, 3]: 0.050 Nanomoles/minute/mg of microsomal protein | Rate, Total [1, 3]: 0.249 Nanomoles/minute/mg of microsomal protein | (%) 20:0 acyl CoA [1, 4]: 81.3% | (%) 22:0 acyl CoA [1, 4]: 5.1% | (%) 24:0 acyl CoA [1, 4]: 13.6% | (%) 26:0 acyl CoA [1, 4]: 0.0% | (%) Total [1, 4]: 100.0% | Rate, 20:0 acyl CoA [1, 4]: 0.030 Nanomoles/minute/mg of microsomal protein | Rate, 22:0 acyl CoA [1, 4]: 0.002 Nanomoles/minute/mg of microsomal protein | Rate, 24:0 acyl CoA [1, 4]: 0.005 Nanomoles/minute/mg of microsomal protein | Rate, 26:0 acyl CoA [1, 4]: 0.000 Nanomoles/minute/mg of microsomal protein | Rate, Total [1, 4]: 0.037 Nanomoles/minute/mg of microsomal protein | effect of omission of ATP and/or CoA on overall amounts of VLCFAs synthesized ([1]; 18:0-CoA substrate, galactose-induced): does not have a significant effect | (%) 20:0 acyl-CoA product [1, 5]: 41.8% | (%) 22:0 acyl-CoA product [1, 5]: 20.7% | (%) 24:0 acyl-CoA product [1, 5]: 20.3% | (%) 26:0 acyl-CoA product [1, 5]: 17.2% | (%) Total acyl-CoA products [1, 5]: 100.0% | Rate, 20:0 acyl-CoA product [1, 5]: 0.108 Nanomoles/minute/mg of microsomal protein | Rate, 22:0 acyl-CoA product [1, 5]: 0.053 Nanomoles/minute/mg of microsomal protein | Rate, 24:0 acyl-CoA product [1, 5]: 0.052 Nanomoles/minute/mg of microsomal protein | Rate, 26:0 acyl-CoA product [1, 5]: 0.044 Nanomoles/minute/mg of microsomal protein | Rate, Total acyl-CoA products [1, 5]: 0.258 Nanomoles/minute/mg of microsomal protein | 20:0 product as a percent of total products formed [1, 6]: 47.1% | 22:0 product as a percent of total products formed [1, 6]: 19.1% | 24:0 product as a percent of total products formed [1, 6]: 19.4% | 26:0 product as a percent of total products formed [1, 6]: 14.5% | Total products as a percent of total products formed [1, 6]: 100.0% | 20:0 product as a percent of total products formed [1, 7]: 54.5% | 22:0 product as a percent of total products formed [1, 7]: 17.1% | 24:0 product as a percent of total products formed [1, 7]: 5.8% | 26:0 product as a percent of total products formed [1, 7]: 22.6% | Total products as a percent of total products formed [1, 7]: 100.0% | increase in overall elongase activity on induction with galactose, 18:0 acyl CoA substrate ([1]; galactose-induced vs glucose): ~7 fold | 20:0 product as a percent of total products formed [1, 8]: 38.0% | 22:0 product as a percent of total products formed [1, 8]: 15.9% | 24:0 product as a percent of total products formed [1, 8]: 18.4% | 26:0 product as a percent of total products formed [1, 8]: 27.8% | Total products as a percent of total products formed [1, 8]: 100.0% | 20:0 product as a percent of total products formed [1, 9]: 34.1% | 22:0 product as a percent of total products formed [1, 9]: 16.4% | 24:0 product as a percent of total products formed [1, 9]: 20.8% | 26:0 product as a percent of total products formed [1, 9]: 28.9% | Total products as a percent of total products formed [1, 9]: 100.0% | 20:0 product as a percent of total products formed [1, 10]: 45.3% | 22:0 product as a percent of total products formed [1, 10]: 19.2% | 24:0 product as a percent of total products formed [1, 10]: 19.9% | 26:0 product as a percent of total products formed [1, 10]: 15.8% | Total products as a percent of total products formed [1, 10]: 100.0% | 18:0-CoA elongation activity, +Glu ([1]; microsomes from glucose-grown cultures, standard reaction mix): .033 nanomoles/minute/mg of microsomal protein | increase in 18:1 CoA elongation, microsomes from induced vs uninduced cells [2]: ~2 fold | (%) 20:1 acyl CoA [2, 11]: 100.0% | (%) 22:1 acyl CoA [2, 11]: 0.0% | (%) 24:1 acyl CoA [2, 11]: 0.0% | (%) 26:1 acyl CoA [2, 11]: 0.0% | (%) Total [2, 11]: 100.0% | Rate, 20:1 acyl CoA [2, 11]: 0.089 Nanomoles/minute/mg of microsomal protein | Rate, 22:1 acyl CoA [2, 11]: 0.000 Nanomoles/minute/mg of microsomal protein | Rate, 24:1 acyl CoA [2, 11]: 0.000 Nanomoles/minute/mg of microsomal protein | Rate, 26:1 acyl CoA [2, 11]: 0.000 Nanomoles/minute/mg of microsomal protein | Rate, Total [2, 11]: 0.089 Nanomoles/minute/mg of microsomal protein | (%) 20:1 acyl CoA [2, 12]: 100.0% | (%) 22:1 acyl CoA [2, 12]: 0.0% | (%) 24:1 acyl CoA [2, 12]: 0.0% | (%) 26:1 acyl CoA [2, 12]: 0.0% | (%) Total [2, 12]: 100.0% | Rate, 20:1 acyl CoA [2, 12]: 0.043 Nanomoles/minute/mg of microsomal protein | Rate, 22:1 acyl CoA [2, 12]: 0.000 Nanomoles/minute/mg of microsomal protein | Rate, 24:1 acyl CoA [2, 12]: 0.000 Nanomoles/minute/mg of microsomal protein | Rate, 26:1 acyl CoA [2, 12]: 0.000 Nanomoles/minute/mg of microsomal protein | Rate, Total [2, 12]: 0.043 Nanomoles/minute/mg of microsomal protein | (%) 20:1 acyl-CoA product [2, 13]: 84.1% | (%) 22:1 acyl-CoA product [2, 13]: 15.9% | (%) 24:1 acyl-CoA product [2, 13]: 0.0% | (%) 26:1 acyl-CoA product [2, 13]: 0.0% | (%) Total acyl-CoA products [2, 13]: 100.0% | Rate, 20:1 acyl-CoA product [2, 13]: 0.091 Nanomoles/minute/mg of microsomal protein | Rate, 22:1 acyl-CoA product [2, 13]: 0.017 Nanomoles/minute/mg of microsomal protein | Rate, 24:1 acyl-CoA product [2, 13]: 0.0 Nanomoles/minute/mg of microsomal protein | Rate, 26:1 acyl-CoA product [2, 13]: 0.0 Nanomoles/minute/mg of microsomal protein | Rate, Total acyl-CoA products [2, 13]: 0.108 Nanomoles/minute/mg of microsomal protein
